Experimental data as given in patent US20210388087A1 (Chugai, published 2021).
Where a chain is given by its changes, count along the chain named.

B1: H183/L072 VL P56N (antibody, name in Kabat numbering, V domains shown)
VH: QVQLVESGGGLVQPGRSLRLSCAASGFTFSNAWMHWVRQAPGKGLEWVAQIKDKGNAYAAYYAPSVKGRFTISRDDSKNSIYLQMNSLKTEDTAVYYCHYVHYASASTVLPAFGVDAWGQGTTVTVSS
VL: DIVMTQSPLSLPVTPGEPASISCQASQELVHMNRNTYLHWYQQKPGQAPRLLIYKVSNRFNGVPDRFSGSGSGTDFTLKISRVEAEDVGVYYCAQGTSVPFTFGQGTKLEIK
notes: Dual-Ig
B2: H183/L072 VL P56Q (antibody, name in Kabat numbering, V domains shown)
VH: B1 VH
VL: B1 VL with N61Q
notes: Dual-Ig
B3: H183/L072 VL P56R (antibody, name in Kabat numbering, V domains shown)
VH: B1 VH
VL: B1 VL with N61R
notes: Dual-Ig
B4: H183/L072 VL P56S (antibody, name in Kabat numbering, V domains shown)
VH: B1 VH
VL: B1 VL with N61S
notes: Dual-Ig
B5: H183/L072 VL P56T (antibody, name in Kabat numbering, V domains shown)
VH: B1 VH
VL: B1 VL with N61T
notes: Dual-Ig
B6: H183/L072 VL P56V (antibody, name in Kabat numbering, V domains shown)
VH: B1 VH
VL: B1 VL with N61V
notes: Dual-Ig
B7: H183/L072 VL P56W (antibody, name in Kabat numbering, V domains shown)
VH: B1 VH
VL: B1 VL with N61W
notes: Dual-Ig
B8: H183/L072 VL P95A (antibody, name in Kabat numbering, V domains shown)
VH: B1 VH
VL: B1 VL with N61P, P100A
notes: Dual-Ig
B9: H183/L072 VL P95D (antibody, name in Kabat numbering, V domains shown)
VH: B1 VH
VL: B1 VL with N61P, P100D
notes: Dual-Ig
B10: H183/L072 VL P95E (antibody, name in Kabat numbering, V domains shown)
VH: B1 VH
VL: B1 VL with N61P, P100E
notes: Dual-Ig
B11: H183/L072 VL P95F (antibody, name in Kabat numbering, V domains shown)
VH: B1 VH
VL: B1 VL with N61P, P100F
notes: Dual-Ig
B12: H183/L072 VL P95G (antibody, name in Kabat numbering, V domains shown)
VH: B1 VH
VL: B1 VL with N61P, P100G
notes: Dual-Ig
B13: H183/L072 VL P95H (antibody, name in Kabat numbering, V domains shown)
VH: B1 VH
VL: B1 VL with N61P, P100H
notes: Dual-Ig
B14: H183/L072 VL P95I (antibody, name in Kabat numbering, V domains shown)
VH: B1 VH
VL: B1 VL with N61P, P100I
notes: Dual-Ig
B15: H183/L072 VL P95K (antibody, name in Kabat numbering, V domains shown)
VH: B1 VH
VL: B1 VL with N61P, P100K
notes: Dual-Ig
B16: H183/L072 VL P95L (antibody, name in Kabat numbering, V domains shown)
VH: B1 VH
VL: B1 VL with N61P, P100L
notes: Dual-Ig
B17: H183/L072 VL P95M (antibody, name in Kabat numbering, V domains shown)
VH: B1 VH
VL: B1 VL with N61P, P100M
notes: Dual-Ig
B18: H183/L072 VL P95N (antibody, name in Kabat numbering, V domains shown)
VH: B1 VH
VL: B1 VL with N61P, P100N
notes: Dual-Ig
B19: H183/L072 VL P95Q (antibody, name in Kabat numbering, V domains shown)
VH: B1 VH
VL: B1 VL with N61P, P100Q
notes: Dual-Ig
B20: H183/L072 VL P95R (antibody, name in Kabat numbering, V domains shown)
VH: B1 VH
VL: B1 VL with N61P, P100R
notes: Dual-Ig
B21: H183/L072 VL P95S (antibody, name in Kabat numbering, V domains shown)
VH: B1 VH
VL: B1 VL with N61P, P100S
notes: Dual-Ig
B22: H183/L072 VL P95T (antibody, name in Kabat numbering, V domains shown)
VH: B1 VH
VL: B1 VL with N61P, P100T
notes: Dual-Ig
B23: H183/L072 VL P95V (antibody, name in Kabat numbering, V domains shown)
VH: B1 VH
VL: B1 VL with N61P, P100V
notes: Dual-Ig
B24: H183/L072 VL P95W (antibody, name in Kabat numbering, V domains shown)
VH: B1 VH
VL: B1 VL with N61P, P100W
notes: Dual-Ig
B25: H183/L072 VL Q24A (antibody, name in Kabat numbering, V domains shown)
VH: B1 VH
VL: B1 VL with Q24A, N61P
notes: Dual-Ig
B26: H183/L072 VL Q24D (antibody, name in Kabat numbering, V domains shown)
VH: B1 VH
VL: B1 VL with Q24D, N61P
notes: Dual-Ig
B27: H183/L072 VL Q24F (antibody, name in Kabat numbering, V domains shown)
VH: B1 VH
VL: B1 VL with Q24F, N61P
notes: Dual-Ig
B28: H183/L072 VL Q24G (antibody, name in Kabat numbering, V domains shown)
VH: B1 VH
VL: B1 VL with Q24G, N61P
notes: Dual-Ig
B29: H183/L072 VL Q24H (antibody, name in Kabat numbering, V domains shown)
VH: B1 VH
VL: B1 VL with Q24H, N61P
notes: Dual-Ig
B30: H183/L072 VL Q24I (antibody, name in Kabat numbering, V domains shown)
VH: B1 VH
VL: B1 VL with Q24I, N61P
notes: Dual-Ig
B31: H183/L072 VL Q24K (antibody, name in Kabat numbering, V domains shown)
VH: B1 VH
VL: B1 VL with Q24K, N61P
notes: Dual-Ig
B32: H183/L072 VL Q24L (antibody, name in Kabat numbering, V domains shown)
VH: B1 VH
VL: B1 VL with Q24L, N61P
notes: Dual-Ig
B33: H183/L072 VL Q24M (antibody, name in Kabat numbering, V domains shown)
VH: B1 VH
VL: B1 VL with Q24M, N61P
notes: Dual-Ig
B34: H183/L072 VL Q24N (antibody, name in Kabat numbering, V domains shown)
VH: B1 VH
VL: B1 VL with Q24N, N61P
notes: Dual-Ig
B35: H183/L072 VL Q24P (antibody, name in Kabat numbering, V domains shown)
VH: B1 VH
VL: B1 VL with Q24P, N61P
notes: Dual-Ig
B36: H183/L072 VL Q24R (antibody, name in Kabat numbering, V domains shown)
VH: B1 VH
VL: B1 VL with Q24R, N61P
notes: Dual-Ig
B37: H183/L072 VL Q24S (antibody, name in Kabat numbering, V domains shown)
VH: B1 VH
VL: B1 VL with Q24S, N61P
notes: Dual-Ig
B38: H183/L072 VL Q24T (antibody, name in Kabat numbering, V domains shown)
VH: B1 VH
VL: B1 VL with Q24T, N61P
notes: Dual-Ig
B39: H183/L072 VL Q24V (antibody, name in Kabat numbering, V domains shown)
VH: B1 VH
VL: B1 VL with Q24V, N61P
notes: Dual-Ig
B40: H183/L072 VL Q24W (antibody, name in Kabat numbering, V domains shown)
VH: B1 VH
VL: B1 VL with Q24W, N61P
notes: Dual-Ig
B41: H183/L072 VL Q24Y (antibody, name in Kabat numbering, V domains shown)
VH: B1 VH
VL: B1 VL with Q24Y, N61P
notes: Dual-Ig
B42: H183/L072 VL Q27A (antibody, name in Kabat numbering, V domains shown)
VH: B1 VH
VL: B1 VL with Q27A, N61P
notes: Dual-Ig
B43: H183/L072 VL Q27D (antibody, name in Kabat numbering, V domains shown)
VH: B1 VH
VL: B1 VL with Q27D, N61P
notes: Dual-Ig
B44: H183/L072 VL Q27E (antibody, name in Kabat numbering, V domains shown)
VH: B1 VH
VL: B1 VL with Q27E, N61P
notes: Dual-Ig
B45: H183/L072 VL Q27F (antibody, name in Kabat numbering, V domains shown)
VH: B1 VH
VL: B1 VL with Q27F, N61P
notes: Dual-Ig
B46: H183/L072 VL Q27G (antibody, name in Kabat numbering, V domains shown)
VH: B1 VH
VL: B1 VL with Q27G, N61P
notes: Dual-Ig

biological target: T1, Human CD137 ECD (human); assay: Biacore SPR, vs parent H183/L072
T1 construct: entry includes C-terminal His-tag and biotin acceptor peptide; also called human CD137 extracellular domain; 4-1BB
T1 sequence (chain, as listed by the source limits assumed): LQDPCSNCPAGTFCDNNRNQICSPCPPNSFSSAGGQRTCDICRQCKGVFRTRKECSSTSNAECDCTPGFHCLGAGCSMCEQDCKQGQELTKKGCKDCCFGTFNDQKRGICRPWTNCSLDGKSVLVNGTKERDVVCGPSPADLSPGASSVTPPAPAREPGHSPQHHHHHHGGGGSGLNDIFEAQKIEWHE

Binder | fold change of affinity [fold]
B1 | 0.2
B2 | 0.2
B3 | 0
B4 | 0.1
B5 | 0.2
B6 | 0
B7 | 0
B8 | 0
B9 | 0
B10 | 0
B11 | 0
B12 | 0
B13 | 0
B14 | 0
B15 | 0
B16 | 0
B17 | 0
B18 | 0
B19 | 0
B20 | 0
B21 | 0
B22 | 0
B23 | 0

Binder | fold change of affinity [fold]
B24 | 0
B25 | 1
B26 | 0.9
B27 | 0.9
B28 | 1
B29 | 1
B30 | 0.9
B31 | 1
B32 | 0.9
B33 | 1
B34 | 0.9
B35 | 0
B36 | 0.9
B37 | 1
B38 | 1
B39 | 0.9
B40 | 1
B41 | 0.9
B42 | 1
B43 | 0.9
B44 | 1
B45 | 0.6
B46 | 0.9
